Reference: the supplement of paper PMC11780869

Tested on: Bacillus subtilis
Assay: cleaved RNA product abundance (RNA/gDNA barcode ratio) relative to median wild-type variant (ratio to wild type); higher = more accumulation of the downstream cleavage product
Conditions: cleavage site: cggR-gapA (positions -7 to +36 mutated)
Method in brief: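 Sequencing of barcodes from gel-selected, reverse-transcribed cleaved RNA and from genomic DNA, with UMI collapsing, yielded a per-construct RNA:gDNA ratio. Scaled to the median construct with the unmutated site, this ratio is the cleaved product abundance. The barcoded reporters (truncated aprE or tetM mRNAs with mutagenized RNase Y cleavage-site windows) were integrated into the B. subtilis chromosome, and cultures grew in LB at 37°C from OD600 0.0003 to 0.3.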

[1] = experiment (reporter, strain, medium): exp 2b: truncated aprE reporter, strain BJT200
[2] = experiment (reporter, strain, medium): exp 4a: truncated aprE reporter, strain BJT201 with 2% xylose (RNase J1 expressed)
[3] = experiment (reporter, strain, medium): exp 6: tetM reporter, strain 168

| Sequence | cleaved RNA product abundance [1] | cleaved RNA product abundance [2] | cleaved RNA product abundance [3] |
| --- | --- | --- | --- |
| ACAGACGAAGGAGCCGCAAATAAGTTAATAAGGGATGAATAATCCCTCAATATAAATATCTCTCACTTATTTAAA | 0.247 | 0.343 |  |
| ACAGACGAAGGAGCCGCAAATAAGTTAGTAAGGGATGAATAATCCCTCAATATAAATATCTCTCACTTATTTAAA | 0.305 | 0.549 |  |
| ACAGACGAAGGAGCCGCAAATAAGTTATAAAAGGATGAATAATCCCTCAATATAAATATCTCTCACTTATTTAAA |  | 0.211 |  |
| ACAGACGAAGGAGCCGCAAATAAGTTATAAAGGGATGAATAATCCCTCAATATAAATATCTCTCACTTATTTAAA | 0.337 | 0.421 |  |
| ACAGACGAAGGAGCCGCAAATAAGTTATAAAGGGATGTATAATCCCTCAATATAAATATCTCTCACTTATTTAAA | 0.384 |  |  |
| ACAGACGAAGGAGCCGCAAATAAGTTATCAAGGGATGAATAATCCCTCAATATAAATATCTCTCACTTATTTAAA |  | 0.278 |  |
| ACAGACGAAGGAGCCGCAAATAAGTTATGAAGGGATGAATAATCCCTCAATATAAATATCTCTCACTTATTTAAA |  | 0.558 |  |
| ACAGACGAAGGAGCCGCAAATAAGTTATTAAAGGATGAATAATCCCTCAATATAAATATCTCTCACTTATTTAAA | 0.195 | 0.218 | 0.19 |
| ACAGACGAAGGAGCCGCAAATAAGTTATTAAAGGATGAATAATCCCTCAATATAGATATCTCTCACTTATTTAAA |  | 0.188 |  |
| ACAGACGAAGGAGCCGCAAATAAGTTATTAACGGATGAATAATCCCTCAATATAAATATCTCTCACTTATTTAAA | 0.113 | 0.157 |  |
| ACAGACGAAGGAGCCGCAAATAAGTTATTAAGAGATGAATAATCCCTCAATATAAATATCTCTCACTTATTTAAA | 0.12 | 0.13 |  |
| ACAGACGAAGGAGCCGCAAATAAGTTATTAAGAGATGAATAATCCCTCAATATAAATATTTCTCACTTATTTAAA |  | 0.124 |  |
| ACAGACGAAGGAGCCGCAAATAAGTTATTAAGCGATGAATAATCCCTCAATATAAATATCTCTCACTTATTTAAA |  | 0.134 |  |
| ACAGACGAAGGAGCCGCAAATAAGTTATTAAGGAATGAATAATCCCTCAATATAAATATCTCTCACTTATTTAAA | 0.0785 | 0.129 |  |
| ACAGACGAAGGAGCCGCAAATAAGTTATTAAGGCATGAATAATCCCTCAATATAAATATCTCTCACTTATTTAAA | 0.0924 | 0.0954 |  |
| ACAGACGAAGGAGCCGCAAATAAGTTATTAAGGCATGACTAATCCCTCAATATAAATATCTCTCACTTATTTAAA |  | 0.144 |  |
| ACAGACGAAGGAGCCGCAAATAAGTTATTAAGGGAAGAATAATCCCTCAATATAAATATCTCTCACTTATTTAAA | 0.497 | 0.366 |  |
| ACAGACGAAGGAGCCGCAAATAAGTTATTAAGGGACGAATAATCCCTCAATATAAATATCTCTCACTTATTTAAA | 0.65 | 0.802 |  |
| ACAGACGAAGGAGCCGCAAATAAGTTATTAAGGGAGGAATAATCCCTCAATATAAATATCTCTCACTTATTTAAA | 0.554 | 0.469 |  |
| ACAGACGAAGGAGCCGCAAATAAGTTATTAAGGGATAAATAATCCCTCAATATAAATATCTCTCACTTATTTAAA |  | 1.03 |  |

| Sequence | cleaved RNA product abundance [1] | cleaved RNA product abundance [2] | cleaved RNA product abundance [3] |
| --- | --- | --- | --- |
| ACAGACGAAGGAGCCGCAAATAAGTTATTAAGGGATCAATAATCCCTCAATATAAATATCTCTCACTTATTTAAA |  | 0.721 | 0.865 |
| ACAGACGAAGGAGCCGCAAATAAGTTATTAAGGGATGAAAAATCCCTCAATATAAATATCTCTCACTTATTTAAA | 0.805 | 0.841 | 0.882 |
| ACAGACGAAGGAGCCGCAAATAAGTTATTAAGGGATGAACAATCCCTCAATATAAATATCTCTCACTTATTTAAA | 0.897 | 0.924 |  |
| ACAGACGAAGGAGCCGCAAATAAGTTATTAAGGGATGAATAAACCCTCAATATAAATATCTCTCACTTATTTAAA |  | 0.39 |  |
| ACAGACGAAGGAGCCGCAAATAAGTTATTAAGGGATGAATAACCCCTCAATATAAATATCTCTCACTTATTTAAA | 0.582 | 0.494 |  |
| ACAGACGAAGGAGCCGCAAATAAGTTATTAAGGGATGAATAAGCCCTCAATATAAATATCTCTCACTTATTTAAA |  | 0.476 |  |
| ACAGACGAAGGAGCCGCAAATAAGTTATTAAGGGATGAATAATACCTCAATATAAATATCTCTCACTTATTTAAA | 0.112 | 0.165 |  |
| ACAGACGAAGGAGCCGCAAATAAGTTATTAAGGGATGAATAATCACTCAATATAAATATCTCTCACTTATTTAAA | 0.118 | 0.107 |  |
| ACAGACGAAGGAGCCGCAAATAAGTTATTAAGGGATGAATAATCCATCAATATAAATATCTCTCACTTATTTAAA | 0.172 | 0.261 |  |
| ACAGACGAAGGAGCCGCAAATAAGTTATTAAGGGATGAATAATCCCACAATATAAATAACTCTCACTTATTTAAA |  | 0.22 |  |
| ACAGACGAAGGAGCCGCAAATAAGTTATTAAGGGATGAATAATCCCACAATATAAATATCTCTCACTTATTTAAA | 0.233 | 0.187 |  |
| ACAGACGAAGGAGCCGCAAATAAGTTATTAAGGGATGAATAATCCCCCAATATAAATATCTCTCACTTATTTAAA |  | 0.23 |  |
| ACAGACGAAGGAGCCGCAAATAAGTTATTAAGGGATGAATAATCCCTAAATATAAATATCTCTCACTTATTTAAA | 0.668 | 0.865 |  |
| ACAGACGAAGGAGCCGCAAATAAGTTATTAAGGGATGAATAATCCCTCAAAATAAATATCTCTCACTTATTTAAA | 0.34 | 0.322 |  |
| ACAGACGAAGGAGCCGCAAATAAGTTATTAAGGGATGAATAATCCCTCAACATAAATATCTCTCACTTATTTAAA |  | 0.401 |  |
| ACAGACGAAGGAGCCGCAAATAAGTTATTAAGGGATGAATAATCCCTCAAGATAAATATCTCTCACTTATTTAAA |  | 0.373 |  |
| ACAGACGAAGGAGCCGCAAATAAGTTATTAAGGGATGAATAATCCCTCAATAAAAATATCTCTCACTTATTTAAA |  | 0.143 |  |
| ACAGACGAAGGAGCCGCAAATAAGTTATTAAGGGATGAATAATCCCTCAATACAAATATCTCTCACTTATTTAAA |  | 0.106 |  |
| ACAGACGAAGGAGCCGCAAATAAGTTATTAAGGGATGAATAATCCCTCAATATAAACATCTCTCACTTATTTAAA | 0.822 | 0.822 |  |
| ACAGACGAAGGAGCCGCAAATAAGTTATTAAGGGATGAATAATCCCTCAATATAAAGATCTCTCACTTATTTAAA | 0.535 | 0.565 |  |

| Sequence | cleaved RNA product abundance [1] | cleaved RNA product abundance [2] | cleaved RNA product abundance [3] |
| --- | --- | --- | --- |
| ACAGACGAAGGAGCCGCAAATAAGTTATTAAGGGATGAATAATCCCTCAATATAAATAACTCTCACTTATTTAAA |  | 0.44 |  |
| ACAGACGAAGGAGCCGCAAATAAGTTATTAAGGGATGAATAATCCCTCAATATAAATACCTCTCACTTATTTAAA |  | 0.538 |  |
| ACAGACGAAGGAGCCGCAAATAAGTTATTAAGGGATGAATAATCCCTCAATATAAATATATCTCACTTATTTAAA |  | 0.814 |  |
| ACAGACGAAGGAGCCGCAAATAAGTTATTAAGGGATGAATAATCCCTCAATATAAATATCTCTCACTTATTTAAA | 0.972 | 0.932 | 1.07 |
| ACAGACGAAGGAGCCGCAAATAAGTTATTAAGGGATGAATAATCCCTCAATATAAATGTCTCTCACTTATTTAAA |  | 0.45 |  |
| ACAGACGAAGGAGCCGCAAATAAGTTATTAAGGGATGAATAATCCCTCAATATAAATTTCTCTCACTTATTTAAA |  | 0.862 |  |
| ACAGACGAAGGAGCCGCAAATAAGTTATTAAGGGATGAATAATCCCTCAATATAATTATCTCTCACTTATTTAAA | 0.515 | 0.477 |  |
| ACAGACGAAGGAGCCGCAAATAAGTTATTAAGGGATGAATAATCCCTCAATATACATATCTCTCACTTATTTAAA | 0.727 | 0.64 |  |
| ACAGACGAAGGAGCCGCAAATAAGTTATTAAGGGATGAATAATCCCTCAATATAGATATCTCTCACTTATTTAAA | 0.715 | 0.649 |  |
| ACAGACGAAGGAGCCGCAAATAAGTTATTAAGGGATGAATAATCCCTCAATATATATATCTCTCACTTATTTAAA |  | 0.9 |  |
| ACAGACGAAGGAGCCGCAAATAAGTTATTAAGGGATGAATAATCCCTCAATATTAATATCTCTCACTTATTTAAA |  | 0.156 |  |
| ACAGACGAAGGAGCCGCAAATAAGTTATTAAGGGATGAATAATCCCTCAATGTAAATATCTCTCACTTATTTAAA |  | 0.178 |  |
| ACAGACGAAGGAGCCGCAAATAAGTTATTAAGGGATGAATAATCCCTCAATTTAAATATCTCTCACTTATTTAAA |  | 0.136 |  |
| ACAGACGAAGGAGCCGCAAATAAGTTATTAAGGGATGAATAATCCCTCACTATAAATATCTCTCACTTATTTAAA | 0.193 | 0.218 |  |
| ACAGACGAAGGAGCCGCAAATAAGTTATTAAGGGATGAATAATCCCTCAGTATAAATATCTCTCACTTATTTAAA |  | 0.303 |  |
| ACAGACGAAGGAGCCGCAAATAAGTTATTAAGGGATGAATAATCCCTCATTATAAATATCTCTCACTTATTTAAA |  | 0.356 |  |
| ACAGACGAAGGAGCCGCAAATAAGTTATTAAGGGATGAATAATCCCTCCATATAAATATCTCTCACTTATTTAAA | 0.274 | 0.333 |  |
| ACAGACGAAGGAGCCGCAAATAAGTTATTAAGGGATGAATAATCCCTCGATATAAATATCTCTCACTTATTTAAA | 0.459 |  |  |
